# T1: HA-CCT3 (human, UniProt P49368 1-545)
# T1 construct: Amplified from HEK293T cDNA; not shown: N-terminal HA tag
# T1 sequence: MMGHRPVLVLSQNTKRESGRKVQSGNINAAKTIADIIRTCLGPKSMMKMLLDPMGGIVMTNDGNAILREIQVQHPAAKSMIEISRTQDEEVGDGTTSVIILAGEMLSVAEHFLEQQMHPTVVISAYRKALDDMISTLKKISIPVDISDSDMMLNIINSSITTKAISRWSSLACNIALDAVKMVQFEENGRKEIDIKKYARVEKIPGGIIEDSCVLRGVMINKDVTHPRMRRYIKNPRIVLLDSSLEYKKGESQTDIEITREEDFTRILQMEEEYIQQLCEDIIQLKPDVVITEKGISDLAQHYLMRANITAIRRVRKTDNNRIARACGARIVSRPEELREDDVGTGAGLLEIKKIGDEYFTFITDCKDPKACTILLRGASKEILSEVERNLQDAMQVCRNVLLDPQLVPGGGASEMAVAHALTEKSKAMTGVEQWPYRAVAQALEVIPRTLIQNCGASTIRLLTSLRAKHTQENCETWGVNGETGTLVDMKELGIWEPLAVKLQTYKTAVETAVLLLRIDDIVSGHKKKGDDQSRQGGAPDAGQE
# T2: GFP-CCT2 D3 (aa369-535 of CCT2) (human, UniProt P78371 369-535)
# T2 construct: also called C-terminal one-third of CCT2; not shown: GFP tag
# T2 sequence: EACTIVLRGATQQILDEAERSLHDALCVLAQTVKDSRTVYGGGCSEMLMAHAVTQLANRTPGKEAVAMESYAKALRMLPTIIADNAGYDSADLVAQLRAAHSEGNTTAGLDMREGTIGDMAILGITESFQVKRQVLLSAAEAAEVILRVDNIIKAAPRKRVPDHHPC
# B1: T7-LC3C (expressed in cells) (other, UniProt Q9BXW4 1-126, looked up)
# chain: MPPPQKIPSVRPFKQRKSLAIRQEEVAGIRAKFPNKIPVVVERYPRETFLPPLDKTKFLVPQELTMTQFLSIIRSRMVLRATEAFYLLVNNKSLVSMSATMAEIYRDYKDEDGFVYMTYASQETFG
# notes: Expressed from pCDNA3-T7-LC3C; not shown: T7 tag
# Legend:
# HSP90AB1-HA = target: T3, HSP90AB1-HA (Homo sapiens (Human), UniProt P08238 2-724); experiment: co-IP with T7-LC3C in HEK293T
# T3 construct: Plasmid pCDNA3-HSP90AB1-HA (addgene 22487); not shown: C-terminal HA tag
# Experimental: (§1) The data are representative of three independent experiments. [0146] […] The data are representative of three independent experiments. [0147] […] The data are representative of three independent experiments. [0148] […] The interaction of the peptides with T7-GABARAP or T7-GABARAPL1 proteins was analyzed by in vitro pull-down. The data are representative of three independent experiments. [0149] […] The data are representative of three independent experiments. [0150] […] [0151] (K) Quantification of Q103-HTT-GFP area/DAPI area (mean±SEM) as shown in [0152] (J). 48 h represents IB accumulation stage and 72 h represents clearance stage. P values are indicated (two-tailed t test, >20 views from three independent experiments). [0153] […] The data are representative of three independent experiments. [0154] […] The data are representative of three independent experiments. [0155] […] The data are representative of three independent experiments.
# (§2) Co-immunoprecipitation was performed essentially as described before. In brief, 24 h after transfection, the cells were collected and lysed on ice for 30 min in co-IP buffer (50 mM Tris/HCl pH 7.4, 150 mM NaCl, 1 mM EDTA, 0.5% NP40) with protease inhibitor mixture, and the lysates were cleared by centrifugation. The resulting supernatants were incubated with indicated agarose or magnetic beads and rotated at 4° C. for 3 h. The agarose was washed five times with co-IP buffer.
# HA-CCT6 = target: T4, HA-CCT6 (human, UniProt P40227 2-531); experiment: co-IP with T7-LC3C in HEK293T
# T4 construct: Amplified from HEK293T cDNA; not shown: N-terminal HA tag
# Experimental: as §1, §2
# HA-CCT1 = target: T5, HA-CCT1 (human, UniProt P17987 1-556); experiment: co-IP with T7-LC3C in HEK293T
# T5 construct: Amplified from HEK293T cDNA; not shown: N-terminal HA tag
# Experimental: as §1, §2
# HA-CCT3 = target: T1, HA-CCT3; experiment: co-IP with T7-LC3C in HEK293T
# Experimental: as §1, §2
# HSPA9-HA = target: T6, HSPA9-HA (Homo sapiens (Human), UniProt P38646 1-679, limits assumed); experiment: co-IP with T7-LC3C in HEK293T
# T6 construct: Plasmid pCMV3-HSPA9-HA (SinoBiological HG16926-CY); also called long-form of HSPA9; not shown: C-terminal HA tag
# Experimental: as §1, §2
# [1] = target: T2, GFP-CCT2 D3 (aa369-535 of CCT2); experiment: co-IP of GFP-tagged CCT2 variants with T7-LC3C in HEK293T
# Excerpt: The cells were permeabilized with digitonin before fixation. [0136] (G) Quantification of LC3 around Q103-HTT IB (mean±SEM) as shown in (F). […] [0137] […] The cells were permeabilized with digitonin before immunoblot analysis. LE, long exposure; SE, short exposure. [0138] (I) Quantification of normalized Q103-HTT (mean±SEM) in (H). […] [0139] […] The VLIR motif VIL is highlighted in red. [0140] […] The data are representative of three independent experiments. [0141] […] The cells were permeabilized with digitonin before fixation. [0142] (M) Quantification of LC3 around IBs (mean±SEM) as shown in (L). […] [0143] […] [0144] (O) Quantification of normalized Q103-HTT (mean±SEM) in (N).
# as §2, with “buffer. As for the BFP-tagged Q103, the supernatants were incubated with rabbit anti-BFP antibodies and Protein A/G PLUS-Agarose according to the manufacturers' protocol. […]” for “buffer.”
# T5 sequence (P17987 whole entry): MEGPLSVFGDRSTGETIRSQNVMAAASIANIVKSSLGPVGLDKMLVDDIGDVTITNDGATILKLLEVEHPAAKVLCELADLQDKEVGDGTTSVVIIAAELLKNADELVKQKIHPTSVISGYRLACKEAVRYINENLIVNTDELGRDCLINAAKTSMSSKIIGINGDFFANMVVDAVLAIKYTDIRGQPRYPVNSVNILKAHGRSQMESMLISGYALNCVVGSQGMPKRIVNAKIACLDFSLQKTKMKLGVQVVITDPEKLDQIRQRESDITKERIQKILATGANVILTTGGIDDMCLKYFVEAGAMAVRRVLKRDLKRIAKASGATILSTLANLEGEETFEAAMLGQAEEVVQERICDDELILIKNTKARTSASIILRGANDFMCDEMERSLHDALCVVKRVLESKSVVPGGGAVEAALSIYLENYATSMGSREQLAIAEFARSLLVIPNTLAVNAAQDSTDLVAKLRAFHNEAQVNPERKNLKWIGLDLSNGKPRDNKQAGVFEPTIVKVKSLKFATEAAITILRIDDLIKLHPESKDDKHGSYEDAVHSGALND
# T3 sequence (P08238 2-724 limits assumed): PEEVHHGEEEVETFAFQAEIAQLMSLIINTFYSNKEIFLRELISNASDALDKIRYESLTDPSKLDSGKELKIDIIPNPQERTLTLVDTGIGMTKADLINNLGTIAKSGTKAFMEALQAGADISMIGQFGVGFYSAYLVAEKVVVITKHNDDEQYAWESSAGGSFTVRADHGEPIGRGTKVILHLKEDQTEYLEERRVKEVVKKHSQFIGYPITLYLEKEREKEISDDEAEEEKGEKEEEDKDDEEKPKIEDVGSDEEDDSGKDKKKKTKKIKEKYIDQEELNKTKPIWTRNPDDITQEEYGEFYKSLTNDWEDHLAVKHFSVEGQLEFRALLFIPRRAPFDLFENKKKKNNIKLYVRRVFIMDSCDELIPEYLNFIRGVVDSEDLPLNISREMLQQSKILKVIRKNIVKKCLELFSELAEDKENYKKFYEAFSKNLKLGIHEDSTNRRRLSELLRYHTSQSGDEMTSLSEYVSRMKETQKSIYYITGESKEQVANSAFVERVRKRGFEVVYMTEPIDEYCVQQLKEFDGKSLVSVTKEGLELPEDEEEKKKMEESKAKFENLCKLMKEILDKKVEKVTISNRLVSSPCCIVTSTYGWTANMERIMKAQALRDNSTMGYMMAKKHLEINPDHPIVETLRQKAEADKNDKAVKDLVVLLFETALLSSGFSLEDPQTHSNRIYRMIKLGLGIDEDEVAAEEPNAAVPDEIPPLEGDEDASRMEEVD
# T6 sequence (P38646 whole entry): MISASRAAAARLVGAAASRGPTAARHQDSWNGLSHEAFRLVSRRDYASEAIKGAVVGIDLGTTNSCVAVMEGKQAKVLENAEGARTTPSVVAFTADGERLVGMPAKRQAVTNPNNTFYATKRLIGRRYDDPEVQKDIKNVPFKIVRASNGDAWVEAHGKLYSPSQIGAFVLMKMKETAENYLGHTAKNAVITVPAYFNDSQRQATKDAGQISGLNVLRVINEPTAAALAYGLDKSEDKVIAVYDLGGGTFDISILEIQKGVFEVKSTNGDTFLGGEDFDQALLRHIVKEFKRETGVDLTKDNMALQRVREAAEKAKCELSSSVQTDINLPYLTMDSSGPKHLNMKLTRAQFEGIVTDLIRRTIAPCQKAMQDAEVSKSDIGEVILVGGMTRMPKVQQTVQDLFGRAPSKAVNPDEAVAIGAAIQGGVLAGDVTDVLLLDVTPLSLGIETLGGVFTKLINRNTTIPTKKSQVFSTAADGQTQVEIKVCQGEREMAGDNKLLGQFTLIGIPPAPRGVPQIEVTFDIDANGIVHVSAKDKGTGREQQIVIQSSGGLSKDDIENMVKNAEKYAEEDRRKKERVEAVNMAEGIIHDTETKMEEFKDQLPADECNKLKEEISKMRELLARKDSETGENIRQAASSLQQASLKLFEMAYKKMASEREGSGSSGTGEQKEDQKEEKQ
# T4 sequence (P40227 2-531 limits assumed): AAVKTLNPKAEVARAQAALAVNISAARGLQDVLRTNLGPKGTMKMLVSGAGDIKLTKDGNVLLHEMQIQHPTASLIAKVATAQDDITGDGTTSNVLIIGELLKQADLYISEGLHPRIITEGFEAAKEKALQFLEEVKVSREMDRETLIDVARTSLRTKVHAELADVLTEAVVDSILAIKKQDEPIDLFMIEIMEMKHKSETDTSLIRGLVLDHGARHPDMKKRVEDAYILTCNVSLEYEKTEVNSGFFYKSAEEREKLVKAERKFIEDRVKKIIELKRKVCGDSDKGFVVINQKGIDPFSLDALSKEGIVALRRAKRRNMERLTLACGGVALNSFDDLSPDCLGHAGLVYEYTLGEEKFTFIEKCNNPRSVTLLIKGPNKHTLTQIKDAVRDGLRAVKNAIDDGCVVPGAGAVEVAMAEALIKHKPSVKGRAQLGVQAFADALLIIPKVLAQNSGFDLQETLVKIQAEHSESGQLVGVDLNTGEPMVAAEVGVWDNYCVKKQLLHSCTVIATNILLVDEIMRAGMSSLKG
binder,measurement,setting,value
B1,binding result,HSP90AB1-HA,no binding
same,binding result,HA-CCT6,binds
same,binding result,HA-CCT1,binds
same,binding result,HA-CCT3,binds
same,binding result,HSPA9-HA,binds
same,binding result,[1],binds

# Reference: patent US20240350586A1 (TSINGHUA UNIVERSITY, published 2024)
